Publication PMC6863750

How the values were obtained:
[1] = molecular target: Rac1A P29S/Q61L-mCherry-mito (targeted to mitochondria) (D. discoideum) (UniProt P34144); assay: mitochondrial co-recruitment
[2] = molecular target: GFP-CYRI-mito, WT (Dictyostelium CYRI targeted to mitochondria) (D. discoideum); assay: mitochondrial co-recruitment

Pearson's coefficient of correlation for co-localisation at the mitochondria [1]	Pearson's coefficient of correlation for co-localisation at the mitochondria [2]	Substance
0.77		Dictyostelium CYRI WT, GFP fusion (natural protein)
	0.44	Rac1A P29S/Q61L-mCherry (from UniProt P34144 1-194) (natural protein)
